Assay results taken from PMC6751169.
Values belong to the substance of their own block, whether it stands above or below them.

Experiments:
[1] = target: CrtERD-YFP (geranylgeranyl diphosphate synthase, CrtE-RIDD, fused with yellow fluorescent protein) (UniProt P10644); assay: FRET or BRET; lifetime-based FRET (two-photon FLIM) in living E. coli cells; CFP donor excited at 810 nm, signal collected at 481 nm; strain Car2f against control strain Car1f
[2] = target: MenDRA2 (MenD-RIAD-RIAD with two sequential RIAD peptide tags) (E. coli); assay: transmission electron microscopy; TEM of the SEC-purified Assemblies A, B and C; two-dimensional single-particle analysis on Assembly B
[3] = target: MenDRA (MenD-RIAD with one RIAD peptide tag) (E. coli); assay: as above
[4] = target: MenDRD (MenD-RIDD with one RIDD peptide tag) (E. coli | not stated); assay: as above
[5] = target: MenDRD (MenD-RIDD with one RIDD peptide tag) (E. coli | not stated); assay: SEC; 1.5 mg of enzyme fused with RIAD mixed with two-fold molar excess of enzyme fused with RIDD in Tris buffer pH 7.8, 1 mM EDTA, 0.02% Tween-20, no incubation; Superdex 200 10/300 GL, 0.4 mL/min, Tris pH 7.8, 50 mM NaCl; masses from a calibration curve

Substance: MenDRD (MenD-RIDD with one RIDD peptide tag) (from UniProt P10644 1-44) (enzyme)
stoichiometry N [4]: 4

Substance: MenHRA (MenH-RIAD with one RIAD peptide tag) (enzyme)
stoichiometry N (MenH per 4 MenD (per particle)) [5]: 2

Next, values leading:

FRET efficiency E [1]: 29%
Substance: IdiRA-CFP (isopentenyl diphosphate isomerase, Idi-RIAD, fused with cyan fluorescent protein) (enzyme)

stoichiometry N [2]: 4
Substance: MenDRA2 (MenD-RIAD-RIAD with two sequential RIAD peptide tags) (enzyme)

stoichiometry N [3]: 4
Substance: MenDRA (MenD-RIAD with one RIAD peptide tag) (enzyme)
